Data on 60 substances can be found in US11485769B2, “Peptides and combination of peptides for use in immunotherapy and methods for generating scaffolds for the use against pancreatic cancer and other cancers” (Immatics Biotechnologies GmbH, priority 2015, dated 2022).

The experiment addresses HLA-A*02:01 (Homo sapiens, UniProt P04439, D140Y/D185E/D98H/E176V/E277Q/G131W/G231S/I119V/I121R/I166T/I218V/L300P/L318F/N151K/N90K/P208A/P217A/Q86G/Q94H/R138H/R169H/T345S). The experiment in a line: MHC binding assay (UV-ligand exchange, beta2m ELISA, peptide exchange yield). Conditions: binding to HLA-A*02:01 ranged by peptide exchange yield, β2m ELISA. An excerpt:
Candidate peptides for T cell based therapies according to the present invention were further tested for their MHC binding capacity (affinity). The individual peptide-MHC complexes were produced by UV-ligand exchange, where a UV-sensitive peptide is cleaved upon UV-irradiation, and exchanged with the peptide of interest as analyzed. Only peptide candidates that can effectively bind and stabilize the peptide-receptive MHC molecules prevent dissociation of the MHC complexes. To determine the yield of the exchange reaction, an ELISA was performed based on the detection of the light chain (β2m) of stabilized MHC complexes. The assay was performed as generally described in Rodenko et al. (Rodenko et al., 2006).
96 well MAXISorp plates (NUNC) were coated over night with 2 ug/ml streptavidin in PBS at room temperature, washed 4× and blocked for 1 h at 37° C. in 2% BSA containing blocking buffer. Refolded HLA-A*02:01/MLA-001 monomers served as standards, covering the range of 15-500 ng/ml. Peptide-MHC monomers of the UV-exchange reaction were diluted 100 fold in blocking buffer. Samples were incubated for 1 h at 37° C., washed four times, incubated with 2 ug/ml HRP conjugated anti-μ2m for 1h at 37° C., washed again and detected with TMB solution that is stopped with […]. Absorption was measured at 450 nm. Candidate peptides that show a high exchange yield (preferably higher than 50%, most preferred higher than 75%) are generally preferred for a generation and production of antibodies or fragments thereof, and/or T cell receptors or fragments thereof, as they show sufficient avidity to the MHC molecules and prevent dissociation of the MHC complexes.
MHC class I binding scores. Binding of HLA-class I restricted peptides to HLA-A*02:01 was ranged by peptide exchange yield: ≥10%=+; ≥20%=++; ≥50=+++; >75%=++++
On the technique in general: In an ELISA, binding on a coated surface is turned into a signal by an enzyme label.

As for “119 (VLGDDPQLMKV; listed as Homo sapiens) [compound 119]”, the “Peptide exchange (MHC class I binding score)” value (shortened to “Peptide exchange”) is listed as ““+++” (≥50=+++)”.

In the case of “51 (LLGPAGARA; listed as Homo sapiens) [compound 51]”, the “Peptide exchange” value is ““++” (≥20%=++)”.

“99 (ALESFLKQV; listed as Homo sapiens) [compound 99]”: the “Peptide exchange” value is listed as ““+++” (≥50=+++)”.

With “127 (ALSDLALHFL; listed as Homo sapiens) [compound 127]”, the “Peptide exchange” value is recorded as ““++++” (>75%=++++)”.

Consider “93 (SIDSEPALV; listed as Homo sapiens) [compound 93]”, for which the “Peptide exchange” value was ““+++” (≥50=+++)”.

Take “41 (GLLAGNEKLTM; listed as Homo sapiens) [compound 41]”: the “Peptide exchange” value is ““++” (≥20%=++)”.

For the substance “10 (VLLDKIKNL; listed as Homo sapiens) [compound 10]”, the “Peptide exchange” value was ““++” (≥20%=++)”.

As for “77 (RLFPGSSFL; listed as Homo sapiens) [compound 77]”, the “Peptide exchange” value is recorded as ““++++” (>75%=++++)”.

Regarding “20 (GLIDIENPNRV; listed as Homo sapiens) [compound 20]”, the “Peptide exchange” value is listed as ““+++” (≥50=+++)”.

As to “134 (ILLAEGRLVNL; listed as Homo sapiens) [compound 134]”, the “Peptide exchange” value is on record as ““+++” (≥50=+++)”.

On to “68 (VLFDVTGQV; listed as Homo sapiens) [compound 68]”, for which the “Peptide exchange” value is given as ““+++” (≥50=+++)”.

As for “159 (SLLDLHTKV; listed as Homo sapiens) [compound 159]”, the “Peptide exchange” value was ““+++” (≥50=+++)”.

With “55 (NLAPAPLNA; listed as Homo sapiens) [compound 55]”, the “Peptide exchange” value is ““++” (≥20%=++)”.

Consider “139 (SIDRNPPQL; listed as Homo sapiens) [compound 139]”, for which the “Peptide exchange” value is ““+++” (≥50=+++)”.

Turning to “126 (ALLSLDPAAV; listed as Homo sapiens) [compound 126]”, the “Peptide exchange” value is given as ““++++” (>75%=++++)”.

For the substance “35 (FLFPSQYVDV; listed as Homo sapiens) [compound 35]”, the “Peptide exchange” value was ““+++” (≥50=+++)”.

As to “19 (ALWHDAENQTVV; listed as Homo sapiens) [compound 19]”, the “Peptide exchange” value was ““+++” (≥50=+++)”.

“72 (VMASPGGLSAV; listed as Homo sapiens) [compound 72]”: the “Peptide exchange” value is on record as ““+++” (≥50=+++)”.

“151 (ALLDIIRSL; listed as Homo sapiens) [compound 151]”: the “Peptide exchange” value is listed as ““++++” (>75%=++++)”.

“95 (ALADDDFLTV; listed as Homo sapiens) [compound 95]”: the “Peptide exchange” value is listed as ““+++” (≥50=+++)”.

Take “39 (FLTPSIFII; listed as Homo sapiens) [compound 39]”: the “Peptide exchange” value was ““++” (≥20%=++)”.

Turning to “58 (RQYPWGVVQV; listed as Homo sapiens) [compound 58]”, the “Peptide exchange” value is listed as ““++” (≥20%=++)”.

In the case of “65 (TLNEKLTAL; listed as Homo sapiens) [compound 65]”, the “Peptide exchange” value is ““+++” (≥50=+++)”.

Consider “78 (SLQDTEEKSRS; listed as Homo sapiens) [compound 78]”, for which the “Peptide exchange” value is on record as ““+++” (≥50=+++)”.

Turning to “40 (GLAPQIHDL; listed as Homo sapiens) [compound 40]”, the “Peptide exchange” value is given as ““++” (≥20%=++)”.

For the substance “9 (QIIDAINKV; listed as Homo sapiens) [compound 9]”, the “Peptide exchange” value is listed as ““++” (≥20%=++)”.

Consider “150 (ALFQPHLINV; listed as Homo sapiens) [compound 150]”, for which the “Peptide exchange” value was ““++++” (>75%=++++)”.

For “26 (SLYTALTEA; listed as Homo sapiens) [compound 26]”, the “Peptide exchange” value was ““+++” (≥50=+++)”.

For “15 (FILANEHNV; listed as Homo sapiens) [compound 15]”, the “Peptide exchange” value is ““+++” (≥50=+++)”.

With “49 (LLDGFPRTV; listed as Homo sapiens) [compound 49]”, the “Peptide exchange” value is on record as ““++” (≥20%=++)”.

Regarding “18 (ALFVRLLAL; listed as Homo sapiens) [compound 18]”, the “Peptide exchange” value is ““++” (≥20%=++)”.

As to “74 (YIDKDLEYV; listed as Homo sapiens) [compound 74]”, the “Peptide exchange” value is ““+++” (≥50=+++)”.

For the substance “90 (KLLTPITTL; listed as Homo sapiens) [compound 90]”, the “Peptide exchange” value is ““+++” (≥50=+++)”.

For “46 (TMVEHNYYV; listed as Homo sapiens) [compound 46]”, the “Peptide exchange” value is on record as ““+++” (≥50=+++)”.

Turning to “44 (ILAQVGFSV; listed as Homo sapiens) [compound 44]”, the “Peptide exchange” value is ““+++” (≥50=+++)”.

In the case of “2 (FGYDGDFYRA; listed as Homo sapiens) [compound 2]”, the “Peptide exchange” value is on record as ““+++” (≥50=+++)”.

“107 (FVYGGPQVQL; listed as Homo sapiens) [compound 107]”: the “Peptide exchange” value is ““+++” (≥50=+++)”.

Turning to “81 (VVYDDSTGLIRL; listed as Homo sapiens) [compound 81]”, the “Peptide exchange” value was ““+++” (≥50=+++)”.

“92 (YLTNEGIAHL; listed as Homo sapiens) [compound 92]”: the “Peptide exchange” value was ““++++” (>75%=++++)”.

Consider “152 (ALLEPEFILKA; listed as Homo sapiens) [compound 152]”, for which the “Peptide exchange” value is given as ““++++” (>75%=++++)”.

Take “121 (YLDEDTIYHL; listed as Homo sapiens) [compound 121]”: the “Peptide exchange” value is recorded as ““++” (≥20%=++)”.

For the substance “3 (ILIGETIKI; listed as Homo sapiens) [compound 3]”, the “Peptide exchange” value was ““+++” (≥50=+++)”.

“82 (ALIAEGIAL; listed as Homo sapiens) [compound 82]”: the “Peptide exchange” value is recorded as ““+++” (≥50=+++)”.

On to “110 (ILLTGTPAL; listed as Homo sapiens) [compound 110]”, for which the “Peptide exchange” value was ““+++” (≥50=+++)”.

For “45 (ILYSDDGQKWTV; listed as Homo sapiens) [compound 45]”, the “Peptide exchange” value is listed as ““+++” (≥50=+++)”.

As to “50 (LLFGSDGYYV; listed as Homo sapiens) [compound 50]”, the “Peptide exchange” value is reported as ““+++” (≥50=+++)”.

Consider “22 (ILSTEIFGV; listed as Homo sapiens) [compound 22]”, for which the “Peptide exchange” value is ““+++” (≥50=+++)”.

“64 (TLFSEPKFAQV; listed as Homo sapiens) [compound 64]”: the “Peptide exchange” value is reported as ““++++” (>75%=++++)”.

With “122 (MQAPRAALVFA; listed as Homo sapiens) [compound 122]”, the “Peptide exchange” value is reported as ““++++” (>75%=++++)”.

In the case of “104 (FLQPDLDSL; listed as Homo sapiens) [compound 104]”, the “Peptide exchange” value was ““+++” (≥50=+++)”.

Turning to “148 (YLHNQGIGV; listed as Homo sapiens) [compound 148]”, the “Peptide exchange” value is ““++” (≥20%=++)”.

As for “12 (AQYKFVYQV; listed as Homo sapiens) [compound 12]”, the “Peptide exchange” value was ““+++” (≥50=+++)”.

“17 (GLIDYDTGIRL; listed as Homo sapiens) [compound 17]”: the “Peptide exchange” value is listed as ““+++” (≥50=+++)”.

For the substance “135 (KLDDTYIKA; listed as Homo sapiens) [compound 135]”, the “Peptide exchange” value was ““+++” (≥50=+++)”.

Take “145 (TTFPRPVTV; listed as Homo sapiens) [compound 145]”: the “Peptide exchange” value was ““+++” (≥50=+++)”.

“4 (ALDPAAQAFLL; listed as Homo sapiens) [compound 4]”: the “Peptide exchange” value is on record as ““+++” (≥50=+++)”.

“59 (SLSESFFMV; listed as Homo sapiens) [compound 59]”: the “Peptide exchange” value is ““+++” (≥50=+++)”.

Consider “47 (LIYKDLVSV; listed as Homo sapiens) [compound 47]”, for which the “Peptide exchange” value is ““+++” (≥50=+++)”.

Turning to “130 (FLFGEEPSKL; listed as Homo sapiens) [compound 130]”, the “Peptide exchange” value is on record as ““+++” (≥50=+++)”.

On to “146 (VLISGVVHEI; listed as Homo sapiens) [compound 146]”, for which the “Peptide exchange” value was ““+++” (≥50=+++)”.
